Measured values from article PMC3069404 (The Journal of Biological Chemistry, 2011).

Legend:
Cse4 (recombinant) = Cse4 (recombinant) (S. cerevisiae, UniProt P36012 1-229); test: reconstitution of the complex from the separate proteins
Cse4/H4 = Cse4/H4 (S. cerevisiae, UniProt P36012 1-229; P02309 1-103); test: as above
Chain of Cse4/H4 (P36012 whole entry, one chain of several): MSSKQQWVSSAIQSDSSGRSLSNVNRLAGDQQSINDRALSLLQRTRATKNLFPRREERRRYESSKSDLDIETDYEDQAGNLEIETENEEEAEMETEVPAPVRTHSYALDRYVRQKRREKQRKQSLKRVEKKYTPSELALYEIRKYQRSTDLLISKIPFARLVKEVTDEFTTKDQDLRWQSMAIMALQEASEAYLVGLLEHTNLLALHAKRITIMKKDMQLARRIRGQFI

Chain of Cse4 (recombinant) (P36012 whole entry): as the sequence (P36012 whole entry, one chain of several) above

binding result (Cse4 (recombinant)): binds
binding result (Cse4/H4): binds
B1: His6-Scm3-Δ25N (recombinant) (domain or fragment, S. cerevisiae, UniProt Q12334 26-223, looked up)
chain: ESGKKSESKIRKHSDCNPVHRVYPPNIEKRKTKKDDGISRPIAERNGHVYIMSKENHIIPKLTDDEVMERHKLADENMRKVWSNIISKYESIEEQGDLVDLKTGEIVEDNGHIKTLTANNSTKDKRTKYTSVLRDIIDISDEEDGDKNDEYTLWANDSEASDSEVDADNDTEEEKDEKLIDADFKKYEAKLSKRILRD
